Measured values taken from paper PMC2821923, “Visualizing Interactions along the Escherichia coli Twin-Arginine Translocation Pathway Using Protein Fragment Complementation” (PLoS ONE, 2010).

What was measured:
[1] = target: DmsA-Y1 (entire DmsA enzyme fused to the N-terminal YFP fragment) (E. coli) (UniProt P18775); test: split reporter (BiFC, NanoBiT); split YFP (Y1 1-154, Y2 155-238) BiFC in living E. coli TG1 cells (wt; also ΔtatE, ΔtatB, ΔtatC, ΔtatAE, ΔtatABCE); 1 mM IPTG, 8 h at room temperature; median cell fluorescence by flow cytometry, normalised to ssDmsA-Y1/DmsD-Y2, and fluorescence microscopy; substrate or signal peptide with …
[2] = target: ssDmsA-Y1 (DmsA signal peptide fused to the N-terminal YFP fragment) (E. coli); test: as above
[3] = target: TatB fused to a YFP fragment (TatB-Y1; TatB-Y2) (E. coli) (UniProt P69425); test: split reporter (BiFC, NanoBiT); split YFP BiFC in living TG1 ΔtatABCE cells (TatA also in ΔtatAE, TatB/TatC also in ΔtatB and ΔtatC); median fluorescence by flow cytometry against unfused Y1 or Y2 controls, fluorescence microscopy
[4] = target: TatC fused to a YFP fragment (TatC-Y1; TatC-Y2) (E. coli) (UniProt P69423); test: as above
[5] = target: TatC(E103R) fused to a YFP fragment (E103R-Y1; E103R-Y2) (E. coli) (UniProt P69423); test: as above
[6] = target: TatC(P48A) fused to a YFP fragment (P48A-Y1; P48A-Y2) (E. coli) (UniProt P69423); test: as above
[7] = target: the molecule itself; test: as above

With “DmsD fused to a YFP fragment (DmsD-Y2; DmsD-Y1) (from UniProt P69853 1-204) (natural protein)” the BiFC signal relative to the ssDmsA-Y1/DmsD-Y2 pair [1] was 50%, the DmsA binding activity ([1]; scale: relative) was 0.62 and the BiFC fluorescence, fold over background (unfused Y1 with DmsD-Y2) [2] was 5 fold. For the same molecule, the median fluorescence (M) [2] was 2250 and the ssDmsA binding activity ([2]; scale: relative) was 1.

In the case of ssDmsA(KK)-Y1 (domain or fragment), the BiFC signal, fold above background [3] is reported as 5.4 fold and the BiFC signal, fold above background [4] is reported as 10.7 fold.

Work on “ssDmsA-Y1 (DmsA signal peptide fused to the N-terminal YFP fragment) (domain or fragment)” yielded a BiFC signal, fold above background [3] of 3.5 fold, a BiFC signal, fold above background [4] of 7 fold and a BiFC signal, fold less than with wt TatC [5] of 2 fold. For the same molecule, the BiFC signal, fold less than with wt TatC [6] was 2 fold.

B1: TatA(F39A) fused to a YFP fragment (F39A-Y1; F39A-Y2) (natural protein, E. coli, UniProt P69428 1-89, looked up)
chain: MGGISIWQLLIIAVIVVLLFGTKKLGSIGSDLGASIKGAKKAMSDDEPKQDKTSQDADFTAKTIADKQADTNQEQAKTEDAKRHDKEQV
notes: TatA, E. coli, full length, with F39A in the predicted amphipathic region; also called TatA(F39A)-Y1; TatA(F39)-Y2; source: E. coli TG1 ΔtatABCE (also TG1 ΔtatAE), co-expressed from plasmids pF39A-Y1 and pF39A-Y2, in living cells
In the case of B1, the “BiFC signal relative to the wt TatA homo-oligomers” value [7] is reported as roughly 2 fold.
